Laboratory results published in IntAct's records for PubMed 31515488.

B1: Rab-like protein 2A (Homo sapiens), Q9UBK7 (parent)
chain: MAEDKTKPSELDQGKYDADDNVKIICLGDSAVGKSKLMERFLMDGFQPQQLSTYALTLYKHTATVDGKTILVDFWDTAGQERFQSMHASYYHKAHACIMVFDIQRKVTYRNLSTWYTELREFRPEIPCIVVANKIDDINVTQKSFNFAKKFSLPLYFVSAADGTNVVKLFNDAIRLAVSYKQNSQDFMDEIFQELENFSLEQEEEDVPDQEQSSSIETPSEEVASPHS
partner: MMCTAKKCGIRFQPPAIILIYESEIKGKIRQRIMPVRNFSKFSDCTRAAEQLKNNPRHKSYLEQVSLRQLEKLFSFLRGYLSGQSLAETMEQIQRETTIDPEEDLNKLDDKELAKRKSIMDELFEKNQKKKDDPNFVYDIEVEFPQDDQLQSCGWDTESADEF
B2: Hematopoietic lineage cell-specific protein (Homo sapiens), P14317 (parent)
chain: MWKSVVGHDVSVSVETQGDDWDTDPDFVNDISEKEQRWGAKTIEGSGRTEHINIHQLRNKVSEEHDVLRKKEMESGPKASHGYGGRFGVERDRMDKSAVGHEYVAEVEKHSSQTDAAKGFGGKYGVERDRADKSAVGFDYKGEVEKHTSQKDYSRGFGGRYGVEKDKWDKAALGYDYKGETEKHESQRDYAKGFGGQYGIQKDRVDKSAVGFNEMEAPTTAYKKTTPIEAASSGTRGLKAKFESMAEEKRKREEEEKAQQVARRQQERKAVTKRSPEAPQPVIAMEEPAVPAPLPKKISSEAWPPVGTPPSSESEPVRTSREHPVPLLPIRQTLPEDNEEPPALPPRTLEGLQVEEEPVYEAEPEPEPEPEPEPENDYEDVEEMDRHEQEDEPEGDYEEVLEPEDSSFSSALAGSSGCPAGAGAGAVALGISAVAVYDYQGEGSDELSFDPDDVITDIEMVDEGWWRGRCHGHFGLFPANYVKLLE
partner: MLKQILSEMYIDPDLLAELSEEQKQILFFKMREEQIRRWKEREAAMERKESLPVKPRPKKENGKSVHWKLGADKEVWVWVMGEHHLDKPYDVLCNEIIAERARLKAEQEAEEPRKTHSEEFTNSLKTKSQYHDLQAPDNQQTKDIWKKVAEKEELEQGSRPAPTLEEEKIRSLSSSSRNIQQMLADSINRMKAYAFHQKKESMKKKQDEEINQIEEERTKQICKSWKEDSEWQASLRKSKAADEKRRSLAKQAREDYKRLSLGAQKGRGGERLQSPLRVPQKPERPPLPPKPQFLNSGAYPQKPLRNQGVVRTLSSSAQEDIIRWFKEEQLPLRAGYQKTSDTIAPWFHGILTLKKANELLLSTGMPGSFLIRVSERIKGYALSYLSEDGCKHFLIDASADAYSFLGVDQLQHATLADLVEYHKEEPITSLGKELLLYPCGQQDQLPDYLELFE
B3: Serine/threonine-protein kinase PAK 5 (Homo sapiens), Q9P286 (parent)
chain: MFGKKKKKIEISGPSNFEHRVHTGFDPQEQKFTGLPQQWHSLLADTANRPKPMVDPSCITPIQLAPMKTIVRGNKPCKETSINGLLEDFDNISVTRSNSLRKESPPTPDQGASSHGPGHAEENGFITFSQYSSESDTTADYTTEKYREKSLYGDDLDPYYRGSHAAKQNGHVMKMKHGEAYYSEVKPLKSDFARFSADYHSHLDSLSKPSEYSDLKWEYQRASSSSPLDYSFQFTPSRTAGTSGCSKESLAYSESEWGPSLDDYDRRPKSSYLNQTSPQPTMRQRSRSGSGLQEPMMPFGASAFKTHPQGHSYNSYTYPRLSEPTMCIPKVDYDRAQMVLSPPLSGSDTYPRGPAKLPQSQSKSGYSSSSHQYPSGYHKATLYHHPSLQSSSQYISTASYLSSLSLSSSTYPPPSWGSSSDQQPSRVSHEQFRAALQLVVSPGDPREYLANFIKIGEGSTGIVCIATEKHTGKQVAVKKMDLRKQQRRELLFNEVVIMRDYHHDNVVDMYSSYLVGDELWVVMEFLEGGALTDIVTHTRMNEEQIATVCLSVLRALSYLHNQGVIHRDIKSDSILLTSDGRIKLSDFGFCAQVSKEVPKRKSLVGTPYWMAPEVISRLPYGTEVDIWSLGIMVIEMIDGEPPYFNEPPLQAMRRIRDSLPPRVKDLHKVSSVLRGFLDLMLVREPSQRATAQELLGHPFLKLAGPPSCIVPLMRQYRHH
partner: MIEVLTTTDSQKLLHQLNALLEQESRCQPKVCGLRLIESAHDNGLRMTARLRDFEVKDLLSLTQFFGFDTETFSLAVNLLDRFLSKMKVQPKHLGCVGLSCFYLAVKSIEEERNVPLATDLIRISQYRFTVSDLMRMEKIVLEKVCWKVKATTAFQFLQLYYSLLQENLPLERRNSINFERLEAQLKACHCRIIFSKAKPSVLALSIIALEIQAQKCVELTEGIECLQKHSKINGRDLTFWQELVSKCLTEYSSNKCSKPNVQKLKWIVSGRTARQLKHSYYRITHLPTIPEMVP
B4: Transcription factor 19 (Homo sapiens), Q9Y242 (parent)
chain: MLPCFQLLRIGGGRGGDLYTFHPPAGAGCTYRLGHRADLCDVALRPQQEPGLISGIHAELHAEPRGDDWRVSLEDHSSQGTLVNNVRLPRGHRLELSDGDLLTFGPEGPPGTSPSEFYFMFQQVRVKPQDFAAITIPRSRGEARVGAGFRPMLPSQGAPQRPLSTFSPAPKATLILNSIGSLSKLRPQPLTFSPSWGGPKSLPVPAPPGEMGTTPSAPPQRNRRKSVHRVLAELDDESEPPENPPPVLMEPRKKLRVDKAPLTPTGNRRGRPRKYPVSAPMAPPAVGGGEPCAAPCCCLPQEETVAWVQCDGCDVWFHVACVGCSIQAAREADFRCPGCRAGIQT
partner: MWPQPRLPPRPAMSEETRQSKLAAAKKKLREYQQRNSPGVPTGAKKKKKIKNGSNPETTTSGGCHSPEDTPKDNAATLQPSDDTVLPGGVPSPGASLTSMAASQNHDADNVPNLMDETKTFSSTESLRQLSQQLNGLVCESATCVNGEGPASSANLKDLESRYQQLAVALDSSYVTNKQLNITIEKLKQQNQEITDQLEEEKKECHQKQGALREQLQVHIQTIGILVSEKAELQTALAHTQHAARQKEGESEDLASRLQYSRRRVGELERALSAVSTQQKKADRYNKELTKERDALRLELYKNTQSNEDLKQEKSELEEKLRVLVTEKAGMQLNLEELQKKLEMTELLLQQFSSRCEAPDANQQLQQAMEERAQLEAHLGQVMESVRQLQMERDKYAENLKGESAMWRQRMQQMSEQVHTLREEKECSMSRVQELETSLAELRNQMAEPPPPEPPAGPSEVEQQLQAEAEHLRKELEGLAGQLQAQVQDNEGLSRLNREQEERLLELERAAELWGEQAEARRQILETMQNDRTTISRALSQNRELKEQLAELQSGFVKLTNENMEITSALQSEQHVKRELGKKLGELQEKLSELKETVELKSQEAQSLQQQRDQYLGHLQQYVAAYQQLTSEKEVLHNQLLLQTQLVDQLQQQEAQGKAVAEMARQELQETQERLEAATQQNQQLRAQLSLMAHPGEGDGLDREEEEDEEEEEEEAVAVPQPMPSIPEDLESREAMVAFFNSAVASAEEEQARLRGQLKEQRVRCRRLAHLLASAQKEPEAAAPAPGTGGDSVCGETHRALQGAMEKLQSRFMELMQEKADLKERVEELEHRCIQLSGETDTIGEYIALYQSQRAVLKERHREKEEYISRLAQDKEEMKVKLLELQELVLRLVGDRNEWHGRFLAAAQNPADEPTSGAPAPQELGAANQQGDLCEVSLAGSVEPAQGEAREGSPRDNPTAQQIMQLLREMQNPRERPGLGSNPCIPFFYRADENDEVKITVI
B5: Leucine rich adaptor protein 1 (Homo sapiens), Q96LR2 (parent)
chain: MEGTVESQTPDLRDVEGKVGRKTPEGLLRGLRGECELGTSGALLLPGASSTGHDLGDKIMALKMELAYLRAIDVKILQQLVTLNEGIEAVRWLLEERGTLTSHCSSLTSSQYSLTGGSPGRSRRGSWDSLPDTSTTDRLDSVSIGSFLDTVAPSELDEQGPPGAPRSEMDWAKVIAGGERARTEVDVAATRLGSLRAVWKPPGERLQGGPPESPEDESAKLGFEAHWFWEQCQDDVTFL
B6: Cyclic AMP-dependent transcription factor ATF-2 (Homo sapiens), P15336 (parent)
chain: MKFKLHVNSARQYKDLWNMSDDKPFLCTAPGCGQRFTNEDHLAVHKHKHEMTLKFGPARNDSVIVADQTPTPTRFLKNCEEVGLFNELASPFENEFKKASEDDIKKMPLDLSPLATPIIRSKIEEPSVVETTHQDSPLPHPESTTSDEKEVPLAQTAQPTSAIVRPASLQVPNVLLTSSDSSVIIQQAVPSPTSSTVITQAPSSNRPIVPVPGPFPLLLHLPNGQTMPVAIPASITSSNVHVPAAVPLVRPVTMVPSVPGIPGPSSPQPVQSEAKMRLKAALTQQHPPVTNGDTVKGHGSGLVRTQSEESRPQSLQQPATSTTETPASPAHTTPQTQSTSGRRRRAANEDPDEKRRKFLERNRAAASRCRQKRKVWVQSLEKKAEDLSSLNGQLQSEVTLLRNEVAQLKQLLLAHKDCPVTAMQKKSGYHTADKDDSSEDISVPSSPHTEAIQHSSVSTSNGVSSTSKAEAVATSVLTQMADQSTEPALSQIVMAPSSQSQPSGS

Variants of: B1
Settings: with cep19_human CEP19, Q96LK0

Row | effect of a mutation on the interaction | Variant
1 | with no effect | R82Q
2 | with no effect | L119F

Variants of: B2
Settings: with sh24a_human SH2D4A

Row | effect of a mutation on the interaction | Variant
3 | with no effect | E361K
4 | with no effect | W21C
5 | with no effect | P218L

Variants of: B3
Settings: with ccng1_human CCNG1, P51959

Row | effect of a mutation on the interaction | Variant
6 | with no effect | S511N
7 | with no effect | R335P
8 | with no effect | V604I

Variants of: B4
Settings: with goga2_human GOLGA2, Q08379

Row | effect of a mutation on the interaction | Variant
9 | with no effect | A279V

Variants of: B5
Settings: with tpm3_human TPM3, P06753
tpm3_human TPM3, P06753, sequence (P06753 whole entry): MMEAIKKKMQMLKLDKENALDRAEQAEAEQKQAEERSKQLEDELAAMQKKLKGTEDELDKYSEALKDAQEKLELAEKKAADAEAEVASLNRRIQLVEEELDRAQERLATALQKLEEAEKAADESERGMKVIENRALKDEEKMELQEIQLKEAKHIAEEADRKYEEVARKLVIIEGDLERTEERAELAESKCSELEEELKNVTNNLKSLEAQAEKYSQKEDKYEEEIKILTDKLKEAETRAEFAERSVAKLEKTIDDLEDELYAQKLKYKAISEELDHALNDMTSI

Row | effect of a mutation on the interaction | Variant
10 | with no effect | M60L
11 | with no effect | Q207R

Variants of: B6
Settings: with jun_human JUN

Row | effect of a mutation on the interaction | Variant
12 | with no effect | S456L
